Data: patent publication US20160024487

Key:
[1] = test system: T1, Lys(Dnp)-ATNATX4X3PRIVGG-Lys(Abz), X4 = D, X3 = Y
T1 sequence: KATNATDYPRIVGGK

[2] = test system: T2, Lys(Dnp)-ATNATX4X3PRIVGG-Lys(Abz), X4 = G, X3 = Q
T2 sequence: KATNATGQPRIVGGK

[3] = test system: T3, Lys(Dnp)-ATNATX4X3PRIVGG-Lys(Abz), X4 = P, X3 = N
T3 sequence: KATNATPNPRIVGGK

[4] = test system: T4, Lys(Dnp)-ATNATX4X3PRIVGG-Lys(Abz), X4 = Q, X3 = T
T4 sequence: KATNATQTPRIVGGK

[5] = test system: T5, Lys(Dnp)-ATNATX4X3PRIVGG-Lys(Abz), X4 = T, X3 = E
T5 sequence: KATNATTEPRIVGGK

[6] = test system: T6, Lys(Dnp)-ATNATX4X3PRIVGG-Lys(Abz), X4 = V, X3 = L
T6 sequence: KATNATVLPRIVGGK

[7] = test system: T7, Lys(Dnp)-ATNATX4X3PRIVGG-Lys(Abz), X4 = Y, X3 = D
T7 sequence: KATNATYDPRIVGGK

## Human plasma purified Factor Xa
[1]
  FXa kcat/KM: 11 M⁻¹ s⁻¹
[2]
  FXa kcat/KM: 94 M⁻¹ s⁻¹
[3]
  FXa kcat/KM: 580 M⁻¹ s⁻¹
[4]
  FXa kcat/KM: 920 M⁻¹ s⁻¹
[5]
  FXa kcat/KM: 15 M⁻¹ s⁻¹
[6]
  FXa kcat/KM: 330 M⁻¹ s⁻¹
[7]
  FXa kcat/KM: 36 M⁻¹ s⁻¹
